B1: Homo sapiens NudT16 (HsNudT16) (enzyme, human)
chain: MAGARRLELGEALALGSGWRHVCHALLYAPDPGMLFGRIPLRYAILMQMRFDGRLGFPGGFVDTQDRSLEDGLNRELREELGEAAAAFRVERTDYRSSHVGSGPRVVAHFYAKRLTLEELLAVEAGATRAKDHGLEVLGLVRVPLYTLRDGVGGLPTFLENSFIGSAREQLLEALQDLGLLQSGSISGLKIPAHH
notes: carries A22V as in the Mammalian Gene Collection clone BC031215; subcloned in pNIC28-BSA4; Dimer in solution (SEC) and in the crystal; also called wild-type HsNudT16; native HsNudT16; source: E. coli CodonPlus RIPL, purified (Ni-NTA, TEV cleavage, anion exchange, SEC); not shown: His6, N-terminal, cleaved
B2: HsNudT16 F61S (enzyme, human)
chain: MAGARRLELGEALALGSGWRHVCHALLYAPDPGMLFGRIPLRYAILMQMRFDGRLGFPGGSVDTQDRSLEDGLNRELREELGEAAAAFRVERTDYRSSHVGSGPRVVAHFYAKRLTLEELLAVEAGATRAKDHGLEVLGLVRVPLYTLRDGVGGLPTFLENSFIGSAREQLLEALQDLGLLQSGSISGLKIPAHH
notes: also called F61S mutant; source: E. coli CodonPlus RIPL, purified (Ni-NTA, TEV cleavage, anion exchange, SEC); not shown: His6, N-terminal, cleaved
B3: HsNudT16 H24W (enzyme, human)
chain: MAGARRLELGEALALGSGWRHVCWALLYAPDPGMLFGRIPLRYAILMQMRFDGRLGFPGGFVDTQDRSLEDGLNRELREELGEAAAAFRVERTDYRSSHVGSGPRVVAHFYAKRLTLEELLAVEAGATRAKDHGLEVLGLVRVPLYTLRDGVGGLPTFLENSFIGSAREQLLEALQDLGLLQSGSISGLKIPAHH
notes: also called H24W mutant; source: E. coli CodonPlus RIPL, purified (Ni-NTA, TEV cleavage, anion exchange, SEC); not shown: His6, N-terminal, cleaved

Molecular target: the molecule itself
Assay: SEC; Superdex 75 10/300; 100 µL of each purified protein loaded at 0.3 mL/min, eluted over one column volume; Bio-Rad size standards; dimer to monomers

Stoichiometry N, 2:
B1, B2, B3

Source: paper PMC6459841, “Structural analyses of NudT16–ADP-ribose complexes direct rational design of mutants with improved processing of poly(ADP-ribosyl)ated proteins” (Scientific Reports, 2019)
